Data taken from article PMC5623700.
Like-named read-outs stand apart in the source and are kept apart here. One block for each substance: values may come before it.

Experiments:
[1] = target: human FcγRI with a C-terminal AVI-tag and C-terminal His-tag (Sino Biological) (human) (UniProt P12314); assay: SPR; Biacore T200, single-cycle kinetics; biotinylated FcγRI captured on a CAPchip, IgG1 injected at 0.06-5 nM; HBS-EP+; 37 °C; 1:1 kinetic model; KD observed
[2] = target: human FcRn (human FCGRT & B2M heterodimer) (human) (UniProt P55899); assay: BLI; Octet Red384; FcRn amine-coupled to AR2G tips; 320 nM IgG1 associated at pH 6 and dissociated at pH 7.2; fraction bound 5 s after the start of dissociation (response at 0 s = 100%)
[3] = target: human FcRn (human FCGRT & B2M heterodimer) (human) (UniProt P55899); assay: BLI; as a4 (FcRn on AR2G tips, pH 6), but fitted with a 1:1 binding model; not corrected for the molecular weight of the aggregates; apparent
[4] = target: human FcγRI with a C-terminal AVI-tag and C-terminal His-tag (Sino Biological) (human) (UniProt P12314); assay: SPR; Biacore T200, single-cycle kinetics; biotinylated FcγRI captured on a CAPchip, IgG1 injected at 0.06-5 nM; HBS-EP+; 37 °C; 1:1 kinetic model; KD observed; remark: listed apart in the source
[5] = target: human FcRn (human FCGRT & B2M heterodimer) (human) (UniProt P55899); assay: BLI; Octet Red384, multicycle kinetics; FcRn amine-coupled to AR2G tips, IgG1 2.5-80 nM; association and dissociation at pH 6 (50 mM phosphate, 150 mM NaCl, 0.1% Tween 20); heterogeneous ligand model; KD observed
[6] = target: recombinant human FcγRIIIa (human) (UniProt P08637); assay: SPR; SPR imaging (IBIS MX96); biotinylated Fcγ receptors on a streptavidin G-Strep SensEye sensor, IgG injected; HBS pH 7.2/0.05% Tween-80; binding level at equilibrium (2 min) relative to a reference sample set to 100%; 50 and 250 μg/mL IgG1 (FcγRIIa, FcγRIIIa) or 250 and 1000 μg/mL (FcγRIIb, FcγRIIIb); corrected for decay of the surface
UniProt P08637, sequence (P08637 17-254): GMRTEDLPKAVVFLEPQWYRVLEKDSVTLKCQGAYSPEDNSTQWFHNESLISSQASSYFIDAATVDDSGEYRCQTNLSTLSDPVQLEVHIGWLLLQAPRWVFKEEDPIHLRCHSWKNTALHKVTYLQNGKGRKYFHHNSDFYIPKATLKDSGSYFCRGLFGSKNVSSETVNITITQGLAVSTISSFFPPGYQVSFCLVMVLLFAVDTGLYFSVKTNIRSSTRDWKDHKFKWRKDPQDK

[7] = target: recombinant human FcγRIIIb (human) (UniProt O75015); assay: as above
UniProt O75015, sequence (O75015 17-200): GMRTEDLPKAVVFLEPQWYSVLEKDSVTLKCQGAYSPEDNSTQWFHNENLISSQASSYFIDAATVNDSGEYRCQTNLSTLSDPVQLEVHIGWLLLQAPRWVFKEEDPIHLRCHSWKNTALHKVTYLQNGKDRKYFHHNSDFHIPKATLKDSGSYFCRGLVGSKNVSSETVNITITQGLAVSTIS

[8] = target: recombinant human FcγRIIa (human) (UniProt P12318); assay: as above
UniProt P12318, sequence (P12318 34-317): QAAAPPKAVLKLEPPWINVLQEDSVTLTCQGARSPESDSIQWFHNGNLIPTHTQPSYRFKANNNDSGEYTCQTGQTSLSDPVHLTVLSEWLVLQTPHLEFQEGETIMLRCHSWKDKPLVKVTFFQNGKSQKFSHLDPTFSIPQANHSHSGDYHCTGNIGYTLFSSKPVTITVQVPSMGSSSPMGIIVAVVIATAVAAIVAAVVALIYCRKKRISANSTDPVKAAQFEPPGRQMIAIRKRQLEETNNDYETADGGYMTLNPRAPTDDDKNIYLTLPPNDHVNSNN

[9] = target: recombinant human FcγRIIb (human) (UniProt P31994); assay: as above
UniProt P31994, sequence (P31994 43-310): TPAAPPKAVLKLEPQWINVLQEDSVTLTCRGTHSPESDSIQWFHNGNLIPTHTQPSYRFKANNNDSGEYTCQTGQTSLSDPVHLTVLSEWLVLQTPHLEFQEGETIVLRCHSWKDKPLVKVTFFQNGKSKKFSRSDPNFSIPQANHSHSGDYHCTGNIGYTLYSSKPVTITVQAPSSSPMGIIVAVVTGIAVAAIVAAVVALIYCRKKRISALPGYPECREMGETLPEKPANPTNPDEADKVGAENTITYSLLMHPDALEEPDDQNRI

[10] = target: T1, neonatal Fc receptor (FcRn), FCGRT + beta2-microglobulin heterodimer (UniProt P55899+P61769); assay: biolayer interferometry (Octet Red384), dissociation after a pH switch; conditions: pH 7.2; 150 mM NaCl; association in 50 mM phosphate pH 6; dissociation in 50 mM phosphate pH 7.2 (Methods; Results and Discussion say pH 7.4)
[11] = target: T1, neonatal Fc receptor (FcRn), FCGRT + beta2-microglobulin heterodimer; assay: as above; conditions: pH 7.2; 150 mM NaCl; association in 50 mM phosphate pH 6; dissociation in 50 mM phosphate pH 7.2 (Methods; Results and Discussion say pH 7.4); remark: listed apart in the source
[12] = target: human FcRn (human FCGRT & B2M heterodimer) (human) (UniProt P55899); assay: BLI; Octet Red384, multicycle kinetics; FcRn amine-coupled to AR2G tips, IgG1 2.5-80 nM; association and dissociation at pH 6 (50 mM phosphate, 150 mM NaCl, 0.1% Tween 20); heterogeneous ligand model; KD observed; remark: listed apart in the source
[13] = stress condition 40 °C‐1000 r.p.m._24 h
[14] = stress condition 40 °C‐1000 r.p.m._48 h

UniProt P12314, sequence (P12314 16-292): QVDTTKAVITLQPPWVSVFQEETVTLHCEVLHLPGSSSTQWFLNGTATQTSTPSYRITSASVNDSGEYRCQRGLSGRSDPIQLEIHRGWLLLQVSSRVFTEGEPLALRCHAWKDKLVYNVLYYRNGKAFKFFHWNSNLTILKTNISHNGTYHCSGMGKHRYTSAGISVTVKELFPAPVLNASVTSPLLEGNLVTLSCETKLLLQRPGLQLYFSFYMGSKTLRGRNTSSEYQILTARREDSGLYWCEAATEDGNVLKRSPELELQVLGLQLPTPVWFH

Kd [1]: 0.08 nM
fraction bound at neutral pH [2]: 17.3%
Substance: covalent dimer fraction of IgG1 (DSS cross-linked, preparative SEC) (antibody)

Kd [3]: 3 nM
Kd [1]: 0.07 nM
fraction bound at neutral pH [2]: 17.7%
Substance: covalent oligomer fraction of IgG1 (DSS cross-linked, preparative SEC) (antibody)

maximum response [4]: 5 RU
Kd [5]: 6.3 nM
Substance: fully deglycosylated human IgG1 (PNGase F) (antibody)

fraction bound at neutral pH ([2]; stress condition pH8.0_48 h): 7.8%
fraction bound at neutral pH ([2]; stress condition pH8.0_72 h): 6.5%
Substance: human IgG1 after accelerated asparagine deamidation at pH 8 (antibody)

Kd ([4]; stress condition H2O2_0.1%): 0.93 nM
Kd ([4]; stress condition H2O2_0.25%): 0.53 nM
Kd ([4]; stress condition H2O2_0.5%): 0.42 nM
fraction bound at neutral pH [2]: 6.4%
Kd [5]: 6.2 nM
Substance: human IgG1 after accelerated methionine oxidation with H2O2 (antibody)

fraction bound at neutral pH ([2]; stress condition F‐T 1): 8.4%
fraction bound at neutral pH ([2]; stress condition F‐T 5): 8.1%
fraction bound at neutral pH ([2]; stress condition F‐T 10): 7.4%
Kd ([5]; stress condition F‐T 1): 5.7 nM
Kd ([5]; stress condition F‐T 10): 5.2 nM
relative binding (% of reference) ([6]; stress condition F‐T 1): 80.1%
relative binding (% of reference) ([6]; stress condition F‐T 5): 103%
relative binding (% of reference) ([6]; stress condition F‐T 10): 98.7%
relative binding (% of reference) ([7]; stress condition F‐T 1): 106%
relative binding (% of reference) ([7]; stress condition F‐T 5): 105%
relative binding (% of reference) ([7]; stress condition F‐T 10): 102%
relative binding (% of reference) ([8]; stress condition F‐T 1): 102%
relative binding (% of reference) ([8]; stress condition F‐T 5): 92.3%
relative binding (% of reference) ([8]; stress condition F‐T 10): 85.9%
relative binding (% of reference) ([9]; stress condition F‐T 1): 102%
relative binding (% of reference) ([9]; stress condition F‐T 5): 97.2%
relative binding (% of reference) ([9]; stress condition F‐T 10): 95.9%
Substance: human IgG1 after repeated freeze/thaw cycles (antibody)

Kd [4, 13]: 0.53 nM
Kd [4, 14]: 0.45 nM
fraction bound at neutral pH [2, 13]: 7.9%
fraction bound at neutral pH [2, 14]: 7.3%
Kd [5, 13]: 5.5 nM
Kd [5, 14]: 5 nM
Kd ([5]; stress condition 40 °C‐1000 r.p.m._72 h): 5.4 nM
Substance: human IgG1 after thermal/shake stress at 40 °C and 1000 r.p.m. (antibody)

relative binding (% of reference) [6]: 72.7%
relative binding (% of reference) [7]: 127%
relative binding (% of reference) [8]: 62.5%
relative binding (% of reference) [9]: 93.4%
Substance: human IgG1 heated to 70 °C for 15 min at 300 r.p.m. (antibody)

relative binding (% of reference) [6]: 389%
relative binding (% of reference) [7]: > 1000%
relative binding (% of reference) [8]: > 1000%
relative binding (% of reference) [9]: > 1000%
Substance: human IgG1 heated to 75 °C for 15 min at 300 r.p.m. (antibody)

Kd ([4]; stress condition pH7.2_48 h): 0.59 nM
Kd ([4]; stress condition pH7.2_72 h): 0.48 nM
Kd ([4]; stress condition pH7.2_96 h): 0.58 nM
fraction bound at neutral pH [2]: 7.6%
Kd ([5]; stress condition pH7.2_48 h): 5.5 nM
Kd ([5]; stress condition pH7.2_72 h): 6.1 nM
Kd ([5]; stress condition pH7.2_96 h): 5.6 nM
Substance: human IgG1 kept at 40 °C in HBS buffer pH 7.2 (control of the deamidation stress) (antibody)

Fraction bound (5 s after start of dissociation at neutral pH) [10]: 8.3%
Fraction bound (5 s after start of dissociation at neutral pH) [11]: 7.5%
Substance: human IgG1 monoclonal antibody, reference (unstressed)

Kd [4]: 0.56 nM
maximum response [4]: 80 RU
Kd [1]: 0.66 nM
fraction bound at neutral pH [2]: 7.5%
Kd [5]: 5.7 nM
Kd [12]: 6.3 nM
Substance: human IgG1 monoclonal antibody, reference sample

Kd [4]: 0.44 nM
fraction bound at neutral pH [2]: 14.3%
Kd [5]: 3.7 nM
relative binding (% of reference) [6]: 79.7%
relative binding (% of reference) [7]: 83.9%
relative binding (% of reference) [8]: 102%
relative binding (% of reference) [9]: 90.6%
Substance: human IgG1 with 3% afucosylation (antibody)

Kd [4]: 0.43 nM
Kd [5]: 3.7 nM
Substance: human IgG1 with 8% afucosylation (antibody)

Kd [4]: 0.33 nM
fraction bound at neutral pH [2]: 15.7%
Kd [5]: 3.8 nM
relative binding (% of reference) [6]: 159%
relative binding (% of reference) [7]: 186%
relative binding (% of reference) [8]: 104%
relative binding (% of reference) [9]: 110%
Substance: human IgG1 with 70% afucosylation (antibody)

Kd [4]: 0.52 nM
Kd [5]: 4.9 nM
Substance: human IgG1, 0% deglycosylated control of the deglycosylation (antibody)

Fraction bound (5 s after start of dissociation at neutral pH) [10]: 8.4%
Substance: human IgG1, 1 freeze/thaw cycle

Fraction bound (5 s after start of dissociation at neutral pH) [10]: 8.1%
Substance: human IgG1, 5 freeze/thaw cycles

Fraction bound (5 s after start of dissociation at neutral pH) [10]: 7.4%
Substance: human IgG1, 10 freeze/thaw cycles

Fraction bound (5 s after start of dissociation at neutral pH) [10]: 7.9%
Substance: human IgG1, 40 °C-1000 r.p.m._24 h

Fraction bound (5 s after start of dissociation at neutral pH) [10]: 7.3%
Substance: human IgG1, 40 °C-1000 r.p.m._48 h

Fraction bound (5 s after start of dissociation at neutral pH) [10]: 8.6%
Substance: human IgG1, 40 °C-1000 r.p.m._72 h

Fraction bound (5 s after start of dissociation at neutral pH) [10]: 14.3%
Substance: human IgG1, AF 3 (3% afucosylated)

Fraction bound (5 s after start of dissociation at neutral pH) [10]: 15.7%
Substance: human IgG1, AF 70 (70% afucosylated)

Fraction bound (5 s after start of dissociation at neutral pH) [10]: 8.5%
Substance: human IgG1, DG 0 (glycosylated control of the deglycosylation experiment)

Fraction bound (5 s after start of dissociation at neutral pH) [10]: 4.1%
Substance: human IgG1, DG 100 (fully deglycosylated with PNGase F)

Fraction bound (5 s after start of dissociation at neutral pH) [10]: 7.7%
Substance: human IgG1, H2O2_0.5% oxidised

Fraction bound (5 s after start of dissociation at neutral pH) [10]: 6.4%
Substance: human IgG1, H2O2_0.25% oxidised

Fraction bound (5 s after start of dissociation at neutral pH) [10]: 7.8%
Substance: human IgG1, deamidated pH8.0_48 h

Fraction bound (5 s after start of dissociation at neutral pH) [10]: 6.5%
Substance: human IgG1, deamidated pH8.0_72 h

Fraction bound (5 s after start of dissociation at neutral pH) [10]: 10%
Substance: human IgG1, deamidated pH8.0_96 h

Fraction bound (5 s after start of dissociation at neutral pH) [11]: 8.9%
Substance: human IgG1, monomer fraction of the DSS cross-linking preparation

Fraction bound (5 s after start of dissociation at neutral pH) [10]: 7.6%
Substance: human IgG1, pH7.2_48 h control

Fraction bound (5 s after start of dissociation at neutral pH) [10]: 8.3%
Substance: human IgG1, pH7.2_72 h control

Fraction bound (5 s after start of dissociation at neutral pH) [10]: 7.9%
Substance: human IgG1, pH7.2_96 h control

Kd [1]: 0.52 nM
fraction bound at neutral pH [2]: 8.9%
Kd [12]: 7 nM
Substance: monomer fraction of the DSS-treated IgG1 sample (preparative SEC) (antibody)
